Our source for the Kd values is US20250034260A1 (Sanofi, published 2025).

Experiment [1] deals with T1, human FcRn (biotinylated) (human, UniProt P61769 21-119, biotinylated (site not stated)).
T1 construct: also called neonatal Fc receptor; FcRP
The experiment is described as follows: SPR, Biacore 8K+, biotinylated human FcRn captured on SA chip, pH 6.0, bivalent analyte fit; pH 6.0. The procedure:
(§1) The Nanobody® VHH-Fc protein constructs (FcRn antagonists) were characterized by affinity determination for human FcRn and cyno FcRn at pH 6.0 and pH 7.4 on the Biacore 8K+ instrument. For affinity measurements, ^{˜}200-400 of biotinylated human or cyno FcRn was captured on a Series S Sensor Chip SA. The Nanobody® VHH-Fc fusion proteins were injected at 9 different concentrations (between 0.5 and 1500 nM) and allowed to associate for 120 s at 30 μL/min and dissociate for 600 s.
(§2) The data could not be fitted with the 1:1 Langmuir dissociation model, and a Bivalent Analyte fitting model was used instead due to biphasic on-rate behaviour observed during analysis. The FcRn affinities obtained for TP061 were in line with the published data (see, e.g., Vaccaro, C., Zhou, J., Ober, R. et al., “Engineering the Fc region of immunoglobulin G to modulate in vivo antibody levels”, Nat. Biotechnol. 23, 1283-1288 (2005)).
For orientation: Surface plasmon resonance follows binding to a sensor surface in real time, without labels.

Experiment [2] deals with T2, cyno FcRn (biotinylated) (cynomolgus, UniProt Q8SPV9 24-297; Q8SPW0 21-119, limits assumed, biotinylated (site not stated)).
T2 construct: also called Cynomolgus FcRn; cynomolgus monkey FcRn
T2 sequence (Q8SPV9 24-297 limits assumed, chain 1 of 2): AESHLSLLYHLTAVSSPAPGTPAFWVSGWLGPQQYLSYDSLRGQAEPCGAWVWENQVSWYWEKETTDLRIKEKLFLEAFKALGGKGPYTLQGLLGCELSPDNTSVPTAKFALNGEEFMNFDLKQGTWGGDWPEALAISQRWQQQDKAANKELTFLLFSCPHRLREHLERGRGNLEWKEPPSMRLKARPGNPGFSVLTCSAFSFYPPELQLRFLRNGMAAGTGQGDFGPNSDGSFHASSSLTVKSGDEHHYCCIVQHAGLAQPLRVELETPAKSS
T2 sequence (Q8SPW0 21-119 limits assumed, chain 2 of 2): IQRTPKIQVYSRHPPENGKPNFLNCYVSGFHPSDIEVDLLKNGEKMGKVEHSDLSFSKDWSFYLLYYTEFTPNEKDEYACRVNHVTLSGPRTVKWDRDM
The experiment is described as follows: SPR, Biacore 8K+, biotinylated cyno FcRn captured on SA chip, pH 6.0, bivalent analyte fit; pH 6.0. The procedure: as §1, §2

In experiment [3] the target is T2, cyno FcRn (biotinylated). The experiment is described as follows: SPR, Biacore 8K+, biotinylated cyno FcRn captured on SA chip, pH 7.4, bivalent analyte fit. The procedure: as §1, §2
Experiment [4] has as its target T1, human FcRn (biotinylated). The experiment is described as follows: SPR, Biacore 8K+, biotinylated human FcRn captured on SA chip, pH 6.0, bivalent analyte fit. The procedure:
as §1, §2

Experiment [5] concerns the target T1, human FcRn (biotinylated). The experiment is described as follows: SPR, Biacore 8K+, biotinylated human FcRn captured on SA chip, pH 7.4, bivalent analyte fit. The procedure: as §1, §2
Experiment [6] deals with T2, cyno FcRn (biotinylated). The experiment is described as follows: SPR, Biacore 8K+, biotinylated cyno FcRn captured on SA chip, pH 6.0, bivalent analyte fit. The procedure: as §1, §2

T1 sequence (chain, as listed by the source limits assumed, chain 1 of 2): as the sequence (Q8SPV9 24-297 limits assumed, chain 1 of 2) above, with D39N, Q44E, S99G, G189S, N190S, M217L, T269S counted along it
T1 sequence (P61769 21-119 limits assumed, chain 2 of 2): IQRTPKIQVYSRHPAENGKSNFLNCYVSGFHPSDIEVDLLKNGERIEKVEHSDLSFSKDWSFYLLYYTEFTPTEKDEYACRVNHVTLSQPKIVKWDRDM

B1: T-0263-00_TP061 (other)
chain: DKTHTCPPCPAPELLGGPSVFLFPPKPKDTLYITREPEVTCVVVDVSHEDPEVKFNWYVDGVEVHNAKTKPREEQYNSTYRVVSVLTVLHQDWLNGKEYKCKVSNKALPAPIEKTISKAKGQPREPQVYTLPPSRDELTKNQVSLTCLVKGFYPSDIAVEWESNGQPENNYKTTPPVLDSDGSFFLYSKLTVDKSRWQQGNVFSCSVMHEALKFHYTQKSLSLSPGK
notes: Symmetrical (homodimeric) Fc-only control made without knob-in-hole; also called control FcRn antagonist; IgG1 Fc YTE-KF Fc domain without Nanobody VHH
For the molecule B1, the figures for the Kd in experiment [1] and in experiment [2] were 0.0172 µM and 0.0275 µM, respectively.

B2: T-0263-00_TP069 (Fc fusion)
chain 1: DKTHTCPPCPAPELLGGPSVFLFPPKPKDTLYITREPEVTCVVVDVSHEDPEVKFNWYVDGVEVHNAKTKPREEQYNSTYRVVSVLTVLHQDWLNGKEYKCKVSNKALPAPIEKTISKAKGQPREPQVYTLPPCRDELTKNQVSLWCLVKGFYPSDIAVEWESNGQPENNYKTTPPVLDSDGSFFLYSKLTVDKSRWQQGNVFSCSVMHEALKFHYTQKSLSLSPGGGGGSGGGGSGGGGSGGGGSGGGGSGGGGSGGGGSEVQLVESGGGVVQPGGSLRLSCAASGFTFSSYAMYWVRQAPGKGLEWVSAISSGGGSTDYADSVKGRFTISRDNSKNTLYLQMNSLRPEDTALYYCAADTLYTSLTSYSYWGQGTLVTVSS
chain 2: DKTHTCPPCPAPELLGGPSVFLFPPKPKDTLYITREPEVTCVVVDVSHEDPEVKFNWYVDGVEVHNAKTKPREEQYNSTYRVVSVLTVLHQDWLNGKEYKCKVSNKALPAPIEKTISKAKGQPREPQVCTLPPSRDELTKNQVSLSCAVKGFYPSDIAVEWESNGQPENNYKTTPPVLDSDGSFFLVSKLTVDKSRWQQGNVFSCSVMHEALKFHYTQKSLSLSPG
notes: also called C-terminal fusion construct; human IgG1 Fc YTE-KF (knob)-35GS-T0263018B11(W100cS) + Fc YTE-KF (hole)
For the molecule B2, the Kd in experiment [3] was 0.0125 µM; in experiment [4] it was 0.000873 µM; in experiment [5], 0.014 µM; in experiment [6], 0.000683 µM.

B3: T-0263-00_TP067 (Fc fusion)
chain 1: DVQLVESGGGVVQPGGSLRLSCAASGFTFSSYAMYWVRQAPGKGLEWVSAISSGGGSTDYADSVKGRFTISRDNSKNTLYLQMNSLRPEDTALYYCAADTLYTSLTSYSYWGQGTLVTVSSDKTHTCPPCPAPELLGGPSVFLFPPKPKDTLYITREPEVTCVVVDVSHEDPEVKFNWYVDGVEVHNAKTKPREEQYNSTYRVVSVLTVLHQDWLNGKEYKCKVSNKALPAPIEKTISKAKGQPREPQVYTLPPCRDELTKNQVSLWCLVKGFYPSDIAVEWESNGQPENNYKTTPPVLDSDGSFFLYSKLTVDKSRWQQGNVFSCSVMHEALKFHYTQKSLSLSPG
chain 2: DKTHTCPPCPAPELLGGPSVFLFPPKPKDTLYITREPEVTCVVVDVSHEDPEVKFNWYVDGVEVHNAKTKPREEQYNSTYRVVSVLTVLHQDWLNGKEYKCKVSNKALPAPIEKTISKAKGQPREPQVCTLPPSRDELTKNQVSLSCAVKGFYPSDIAVEWESNGQPENNYKTTPPVLDSDGSFFLVSKLTVDKSRWQQGNVFSCSVMHEALKFHYTQKSLSLSPG
notes: also called N-terminal fusion construct; T0263018B11(E1D,W100cS)-human IgG1 Fc YTE-KF (knob) + Fc YTE-KF (hole)
For B3, the Kd was found to be 0.0112 µM in experiment [3], 0.000692 µM in experiment [4], 0.0103 µM in experiment [5] and 0.000541 µM in experiment [6].
